# T1: HypD from Escherichia coli (Escherichia coli, UniProt P24192 1-373)
# T1 construct: HypD, [4Fe-4S] cluster-containing hydrogenase maturation factor, Escherichia coli; Carries a [4Fe-4S] cluster; No tag is named for HypD in the complexes; also called EcHypD; HypD part of HypCS-D and HypCH-D
# T1 sequence (looked up): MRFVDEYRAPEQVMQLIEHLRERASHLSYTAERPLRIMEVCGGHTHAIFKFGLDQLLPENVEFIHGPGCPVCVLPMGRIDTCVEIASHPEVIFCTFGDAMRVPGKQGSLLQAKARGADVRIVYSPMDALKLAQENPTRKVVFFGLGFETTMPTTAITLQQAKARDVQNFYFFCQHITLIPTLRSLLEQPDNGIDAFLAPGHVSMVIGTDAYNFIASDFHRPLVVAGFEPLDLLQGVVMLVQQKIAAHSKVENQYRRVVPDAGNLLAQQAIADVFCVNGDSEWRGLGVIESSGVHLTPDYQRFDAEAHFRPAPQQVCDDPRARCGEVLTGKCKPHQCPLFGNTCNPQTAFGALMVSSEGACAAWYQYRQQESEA
# B1: HypC_(Strep) (HypC from Escherichia coli with Strep-tag II C-terminally fused) (natural protein, UniProt P0AAM3 1-90, looked up)
# chain: MCIGVPGQIRTIDGNQAKVDVCGIQRDVDLTLVGSCDENGQPRVGQWVLVHVGFAMSVINEAEARDTLDALQNMFDVEPDVGALLYGEEK
# notes: HypC, hydrogenase maturation factor, Escherichia coli; residue numbers count with Met1 as 1; also called EcHypC; HypC part of apo-HypCS-D and holo-HypCS-D; source: holo form additionally by size-exclusion chromatography; not shown: Strep-tag II, C-terminal, kept
# Legend:
# [1] = target: the molecule itself; experiment: SEC; holo-HypCS-D after Strep-Tactin affinity chromatography, Superdex 200 Increase 10/300 GL; oligomers separated from the HypCD complex
# [2] = target: T1, HypD from Escherichia coli; experiment: pull-down; Strep-Tactin affinity chromatography by the Strep-tag II on HypC from soluble extracts of aerobically cultivated E. coli co-producing HypC_(Strep) and HypD (apo: pTHypDC_(Strep); holo: pTHypDEFC_(Strep)); 4 °C; SDS-PAGE of the isolated complexes; settings: partners not purified
binder,measurement,setting,value
B1,binding result,[1],binds
same,binding result,[2],binds

# Reference: paper PMC11565642, “ATP-Triggered Fe(CN)2CO Synthon Transfer from the Maturase HypCD to the Active Site of Apo-[NiFe]-Hydrogenase” (Journal of the American Chemical Society, 2024)
